# Data: publication doi:10.64898/2025.12.16.693247 (2025)
# B1: PTRAMP-CSS heterodimer (complex)
# chain 1: CNLKVRNNWEHFLQVYQNNGNFKMEILEPECTIQKNLPSEEEKEEFIDFDRKELLLHDFVVIKNSQFTDEKTLELYLSKEENNKSYLMLTFYLGDLKLMIGHNSPYEISLILNVATVNKNMSNCKNNSYNIVLLKTTDVFNTSDLEILEGPIQFSLGKSSGAFRINVTNFFLNNTWKAFTKDKISFLIKPEENCYTILENKINKPQLLIEKKTTFYSEWGEWSNCSMDCDHPDNVQIRERECIHPSGDCFKGDLKESRPCIIPLPPCNELFSHKDNST
# chain 2: QDEKSVKNICVCDFTDKLNFLPLEKTKILCELKPQYGEDIKIIANKEYEINCMNNSKVFCPLKDTFINNTNIKLYSPKLHFEIKDITHKGKNAALYYLKIDEEASDIFFSCSIKPKQVSGLLEGEVRVNLKKHINEEYSIFNEEEDVHVCDFSKGNLDITPSAGFYLKNSRNVSCIYRVIPNKLFLIKLPKLDIVTEKLLPSIVNCLSEFSFINFTLKHVQEGDNYISFNVIFGEFKKHFNLTCSLDLSDFQQEPCNLGKTANITFIFSK
# B2: CSS (cysteine-rich small secreted protein), residues Q21-K290 (natural protein)
# chain: B1 chain 2
# Key:
# [1] = biological target: RIPR EGF 9+ (L898 - N1086) (P. falciparum, UniProt O97302 898-1086, N964Q | N1021Q); assay: SPR
# RIPR-Tail (D717 - N1086) [2] = biological target: T1, RIPR-Tail (D717 - N1086) (P. falciparum, UniProt O97302 717-1086, N964Q | N1021Q); assay: SPR; PTRAMP-CSS immobilised, steady state
# [3] = biological target: T2, full-length RIPR (RH5-interacting protein) (P. falciparum, UniProt O97302 20-1086); assay: BLI; 2:1 heterogeneous ligand fit, KD1
# RIPR-Tail (D717 - N1086) [4] = biological target: T1, RIPR-Tail (D717 - N1086); assay: SPR; RIPR-Tail immobilised, steady state
# [5] = biological target: T2, full-length RIPR (RH5-interacting …); assay: BLI; 2:1 heterogeneous ligand fit, KD2 (second site)
# RIPR EGF 7+ = assay: SPR
# RIPR EGF 6+ = assay: SPR
# RIPR EGF 8+ = assay: SPR
# [6] = biological target: mono-biotinylated RIPR-Tail (P. falciparum, UniProt O97302 717-1086, N964Q | N1021Q, biotin on the BAP tag (mono-biotinylated by co-transfected BirA)); assay: SPR
Binder,Kd [1],Kd (RIPR-Tail (D717 - N1086) [2]),Kd [3],Kd (RIPR-Tail (D717 - N1086) [4]),Kd [5],Kd (RIPR EGF 7+),Kd (RIPR EGF 6+),Kd (RIPR EGF 8+),Kd [6]
B1,6.44 µM,6.23 µM,0.00113 µM,5.69 µM,0.176 µM,2.35 µM,5.15 µM,3.55 µM,
B2,,,,,,,,,0.95 µM
